According to US10464978B2, “Peptides and combination of peptides for use in immunotherapy against ovarian cancer and other cancers” (immatics biotechnologies GmbH, priority 2015, dated 2019):

Biological target: HLA-A*02:01 (Homo sapiens, UniProt P04439, D140Y/D185E/D98H/E176V/E277Q/G131W/G231S/I119V/I121R/I166T/I218V/L300P/L318F/N151K/N90K/P208A/P217A/Q86G/Q94H/R138H/R169H/T345S)
Assay: MHC binding assay: UV-ligand exchange with beta2m ELISA (peptide exchange yield)
Settings: binding to HLA-A*02:01
From the text: Candidate peptides for T cell based therapies according to the present invention were further tested for their MHC binding capacity (affinity). The individual peptide-MHC complexes were produced by UV-ligand exchange, where a UV-sensitive peptide is cleaved upon UV-irradiation, and exchanged with the peptide of interest as analyzed. Only peptide candidates that can effectively bind and stabilize the peptide-receptive MHC molecules prevent dissociation of the MHC complexes. To determine the yield of the exchange reaction, an ELISA was performed based on the detection of the light chain ([…]) of stabilized MHC complexes. The assay was performed as generally described in Rodenko et al. (Rodenko et al., 2006).
96 well MAXISorp plates (NUNC) were coated over night with 2 ug/ml streptavidin in PBS at room temperature, washed 4× and blocked for 1 h at 37° C. in 2% BSA containing blocking buffer. […] Peptide-MHC monomers of the UV-exchange reaction were diluted 100 fold in blocking buffer. Samples were incubated for 1h at 37° C., washed four times, incubated with 2 ug/ml HRP conjugated anti-β2m for 1h at 37° C., washed again and detected with TMB solution that is stopped with […]. Absorption was measured at 450 nm. Candidate peptides that show a high exchange yield (preferably higher than 50%, most preferred higher than 75%) are generally preferred for a generation and production of antibodies or fragments thereof, and/or T cell receptors or fragments thereof, as they show sufficient avidity to the MHC molecules and prevent dissociation of the MHC complexes.

## 1 (SLMEPPAVLLL; listed as Homo sapiens) [compound 1]
  Peptide exchange (MHC class I binding score, peptide exchange yield): “+++” (≥50 = +++)

## 2 (SLLEADPFL; listed as Homo sapiens) [compound 2]
  Peptide exchange (MHC class I binding score, peptide exchange yield): “+++” (≥50 = +++)

## 3 (SLASKLTTL; listed as Homo sapiens) [compound 3]
  Peptide exchange (MHC class I binding score, peptide exchange yield): “++++” (≥75% = ++++)

## 4 (GIMEHITKI; listed as Homo sapiens) [compound 4]
  Peptide exchange (MHC class I binding score, peptide exchange yield): “++++” (≥75% = ++++)

## 5 (HLTEVYPEL; listed as Homo sapiens) [compound 5]
  Peptide exchange (MHC class I binding score, peptide exchange yield): “+++” (≥50 = +++)

## 6 (VLVSDGVHSV; listed as Homo sapiens) [compound 6]
  Peptide exchange (MHC class I binding score, peptide exchange yield): “+++” (≥50 = +++)

## 7 (SLVGLLLYL; listed as Homo sapiens) [compound 7]
  Peptide exchange (MHC class I binding score, peptide exchange yield): “++++” (≥75% = ++++)

## 8 (FTLGNVVGMYL; listed as Homo sapiens) [compound 8]
  Peptide exchange (MHC class I binding score, peptide exchange yield): “++++” (≥75% = ++++)

## 9 (GAAKDLPGV; listed as Homo sapiens) [compound 9]
  Peptide exchange (MHC class I binding score, peptide exchange yield): “++” (≥20% = ++)

## 10 (FLATFPLAAV; listed as Homo sapiens) [compound 10]
  Peptide exchange (MHC class I binding score, peptide exchange yield): “++++” (≥75% = ++++)

## 11 (KIFEMLEGV; listed as Homo sapiens) [compound 11]
  Peptide exchange (MHC class I binding score, peptide exchange yield): “+++” (≥50 = +++)

## 12 (SLWPDPMEV; listed as Homo sapiens) [compound 12]
  Peptide exchange (MHC class I binding score, peptide exchange yield): “+++” (≥50 = +++)

## 13 (YLMDESLNL; listed as Homo sapiens) [compound 13]
  Peptide exchange (MHC class I binding score, peptide exchange yield): “+++” (≥50 = +++)

## 14 (AAYGGLNEKSFV; listed as Homo sapiens) [compound 14]
  Peptide exchange (MHC class I binding score, peptide exchange yield): “+++” (≥50 = +++)

## 15 (VLLTFKIFL; listed as Homo sapiens) [compound 15]
  Peptide exchange (MHC class I binding score, peptide exchange yield): “++” (≥20% = ++)

## 16 (VLFQGQASL; listed as Homo sapiens) [compound 16]
  Peptide exchange (MHC class I binding score, peptide exchange yield): “+++” (≥50 = +++)

## 17 (GLLPGDRLVSV; listed as Homo sapiens) [compound 17]
  Peptide exchange (MHC class I binding score, peptide exchange yield): “+++” (≥50 = +++)

## 18 (YLVAKLVEV; listed as Homo sapiens) [compound 18]
  Peptide exchange (MHC class I binding score, peptide exchange yield): “++” (≥20% = ++)

## 19 (FMVDNEAIYDI; listed as Homo sapiens) [compound 19]
  Peptide exchange (MHC class I binding score, peptide exchange yield): “++++” (≥75% = ++++)

## 20 (RMIEYFIDV; listed as Homo sapiens) [compound 20]
  Peptide exchange (MHC class I binding score, peptide exchange yield): “+++” (≥50 = +++)

## 21 (VLDELDMEL; listed as Homo sapiens) [compound 21]
  Peptide exchange (MHC class I binding score, peptide exchange yield): “++” (≥20% = ++)

## 22 (IMEENPGIFAV; listed as Homo sapiens) [compound 22]
  Peptide exchange (MHC class I binding score, peptide exchange yield): “+++” (≥50 = +++)

## 23 (VLLDDIFAQL; listed as Homo sapiens) [compound 23]
  Peptide exchange (MHC class I binding score, peptide exchange yield): “+++” (≥50 = +++)

## 24 (SLSDGLEEV; listed as Homo sapiens) [compound 24]
  Peptide exchange (MHC class I binding score, peptide exchange yield): “++” (≥20% = ++)

## 25 (FLPDEPYIKV; listed as Homo sapiens) [compound 25]
  Peptide exchange (MHC class I binding score, peptide exchange yield): “+++” (≥50 = +++)

## 26 (ALLELAEEL; listed as Homo sapiens) [compound 26]
  Peptide exchange (MHC class I binding score, peptide exchange yield): “+++” (≥50 = +++)

## 27 (ILADIVISA; listed as Homo sapiens) [compound 27]
  Peptide exchange (MHC class I binding score, peptide exchange yield): “+++” (≥50 = +++)

## 28 (QLLDETSAITL; listed as Homo sapiens) [compound 28]
  Peptide exchange (MHC class I binding score, peptide exchange yield): “+++” (≥50 = +++)

## 29 (KMLGIPISNILMV; listed as Homo sapiens) [compound 29]
  Peptide exchange (MHC class I binding score, peptide exchange yield): “+++” (≥50 = +++)

## 30 (LILDWVPYI; listed as Homo sapiens) [compound 30]
  Peptide exchange (MHC class I binding score, peptide exchange yield): “+++” (≥50 = +++)

## 31 (YLAPELFVNV; listed as Homo sapiens) [compound 31]
  Peptide exchange (MHC class I binding score, peptide exchange yield): “++” (≥20% = ++)

## 32 (KLDDLTQDLTV; listed as Homo sapiens) [compound 32]
  Peptide exchange (MHC class I binding score, peptide exchange yield): “++” (≥20% = ++)

## 33 (VLLSLLEKV; listed as Homo sapiens) [compound 33]
  Peptide exchange (MHC class I binding score, peptide exchange yield): “++” (≥20% = ++)

## 34 (ILVEADSLWVV; listed as Homo sapiens) [compound 34]
  Peptide exchange (MHC class I binding score, peptide exchange yield): “+++” (≥50 = +++)

## 35 (KINDTIYEV; listed as Homo sapiens) [compound 35]
  Peptide exchange (MHC class I binding score, peptide exchange yield): “+++” (≥50 = +++)

## 36 (YVLEDLEVTV; listed as Homo sapiens) [compound 36]
  Peptide exchange (MHC class I binding score, peptide exchange yield): “++” (≥20% = ++)

## 38 (FLLEDDIHVS; listed as Homo sapiens) [compound 38]
  Peptide exchange (MHC class I binding score, peptide exchange yield): “+++” (≥50 = +++)

## 39 (SVAPNLPAV; listed as Homo sapiens) [compound 39]
  Peptide exchange (MHC class I binding score, peptide exchange yield): “+++” (≥50 = +++)

## 40 (TLLVKVFSV; listed as Homo sapiens) [compound 40]
  Peptide exchange (MHC class I binding score, peptide exchange yield): “+++” (≥50 = +++)

## 41 (SLMPHIPGL; listed as Homo sapiens) [compound 41]
  Peptide exchange (MHC class I binding score, peptide exchange yield): “+++” (≥50 = +++)

## 42 (VLLQKIVSA; listed as Homo sapiens) [compound 42]
  Peptide exchange (MHC class I binding score, peptide exchange yield): “+++” (≥50 = +++)

## 43 (VLSSLEINI; listed as Homo sapiens) [compound 43]
  Peptide exchange (MHC class I binding score, peptide exchange yield): “++” (≥20% = ++)

## 44 (ILDPISSGFLL; listed as Homo sapiens) [compound 44]
  Peptide exchange (MHC class I binding score, peptide exchange yield): “++” (≥20% = ++)

## 45 (SLWQDIPDV; listed as Homo sapiens) [compound 45]
  Peptide exchange (MHC class I binding score, peptide exchange yield): “+++” (≥50 = +++)

## 46 (ILTEENIHL; listed as Homo sapiens) [compound 46]
  Peptide exchange (MHC class I binding score, peptide exchange yield): “+++” (≥50 = +++)

## 47 (ILLSVPLLVV; listed as Homo sapiens) [compound 47]
  Peptide exchange (MHC class I binding score, peptide exchange yield): “++” (≥20% = ++)

## 48 (ALAELYEDEV; listed as Homo sapiens) [compound 48]
  Peptide exchange (MHC class I binding score, peptide exchange yield): “+++” (≥50 = +++)

## 49 (YLPAVFEEV; listed as Homo sapiens) [compound 49]
  Peptide exchange (MHC class I binding score, peptide exchange yield): “+++” (≥50 = +++)

## 50 (SLSELEALM; listed as Homo sapiens) [compound 50]
  Peptide exchange (MHC class I binding score, peptide exchange yield): “+++” (≥50 = +++)

## 51 (LLPDLEFYV; listed as Homo sapiens) [compound 51]
  Peptide exchange (MHC class I binding score, peptide exchange yield): “++++” (≥75% = ++++)

## 52 (FLLAHGLGFLL; listed as Homo sapiens) [compound 52]
  Peptide exchange (MHC class I binding score, peptide exchange yield): “++++” (≥75% = ++++)

## 53 (KMIETDILQKV; listed as Homo sapiens) [compound 53]
  Peptide exchange (MHC class I binding score, peptide exchange yield): “++++” (≥75% = ++++)

## 54 (SLLEQGKEPWMV; listed as Homo sapiens) [compound 54]
  Peptide exchange (MHC class I binding score, peptide exchange yield): “+++” (≥50 = +++)

## 55 (SLLDLETLSL; listed as Homo sapiens) [compound 55]
  Peptide exchange (MHC class I binding score, peptide exchange yield): “++++” (≥75% = ++++)

## 56 (KLYEGIPVLL; listed as Homo sapiens) [compound 56]
  Peptide exchange (MHC class I binding score, peptide exchange yield): “++++” (≥75% = ++++)

## 57 (TLAELQPPVQL; listed as Homo sapiens) [compound 57]
  Peptide exchange (MHC class I binding score, peptide exchange yield): “+++” (≥50 = +++)

## 59 (IMEDIILTL; listed as Homo sapiens) [compound 59]
  Peptide exchange (MHC class I binding score, peptide exchange yield): “+++” (≥50 = +++)
